The values that follow come from FireProtDB.

For this data set the following is noted: whole UniProt chain shown; for denaturant m value / unfolding free energy / denaturant midpoint (higher = more stable): GdnHCl.
Where [1] appears, read: Ovis aries, pH 7, 25 °C, CD, HEPES 20 mM, reversible: yes.
Setting [2] is: Ovis aries, pH 7, 25 °C, Fluorescence, HEPES 20 mM, reversible: yes.
[3] abbreviates: Saccharolobus solfataricus (strain ATCC 35092 / DSM 1617 / JCM 11322 / P2), pH 7, Thermal, DSC, Unknown, reversible: yes.
The mark [4] stands for this setting: Saccharomyces cerevisiae (strain ATCC 204508 / S288c), pH 6, 20 °C, Fluorescence, Sodium phosphate 0.1 M, reversible: yes.
The mark [5] stands for this setting: Saccharomyces cerevisiae (strain ATCC 204508 / S288c), pH 6, Thermal, DSC, Sodium phosphate 0.1 M, KCl 0.05 M, reversible: yes (70-80%).
Where [6] appears, read: Saccharomyces cerevisiae (strain ATCC 204508 / S288c), pH 7.2, 20 °C, Fluorescence, Sodium phosphate 0.1 M.

The term Tm denotes the temperature at which the thermal transition is half complete.

“And” between values parts separate entries of the source, which are not always exact repeats. Identical values can stand only once.

B1: Pyridoxal kinase wild type, P82197 (protein)
chain: MEEECRVLSIQSHVVRGYVGNRAATFPLQVLGFEVDAVNSVQFSNHTGYSHWKGQVLNSDELQELYDGLKLNHVNQYDYVLTGYTRDKSFLAMVVDIVQELKQQNPRLVYVCDPVMGDQRNGEGAMYVPDDLLPVYREKVVPVADIITPNQFEAELLTGRKIHSQEEALEVMDMLHSMGPDTVVITSSNLLSPRGSDYLMALGSQRTRAPDGSVVTQRIRMEMHKVDAVFVGTGDLFAAMLLAWTHKHPNNLKVACEKTVSAMHHVLQRTIKCAKAKSGEGVKPSPAQLELRMVQSKKDIESPEIVVQATVL
For the protein B1, the denaturant m value was determined as 2.41 kcal/mol/M under setting [1] and 2.9 kcal/mol/M under setting [2]. The unfolding free energy turned out to be 1.55 kcal/mol under setting [1] and 1.5 kcal/mol under setting [2].

B2: Cyanovirin-N wild type, P81180 (protein)
chain: LGKFSQTCYNSAIQGSVLTSTCERTNGGYNTSSIDLNSVIENVDGSLKWQPSNFIETCRNTQLAGSSELAAECKTRAQQFVSTKINLDDHIANIDGTLKYE
For B2, the melting temperature (Tm) (Nostoc ellipsosporum, pH 6, Thermal, CD, Sodium phosphate 10 mM) came out at 48.5 °C.

B3: NAD(P)H-dependent FMN reductase LOT6 wild type, Q07923 (protein)
chain: MKVGIIMGSVRAKRVCPEIAAYVKRTIENSEELIDQKLKIQVVDLQQIALPLYEDDDELIPAQIKSVDEYADSKTRSWSRIVNALDIIVFVTPQYNWGYPAALKNAIDRLYHEWHGKPALVVSYGGHGGSKCNDQLQEVLHGLKMNVIGGVAVKIPVGTIPLPEDIVPQLSVHNEEILQLLASCIETTRNK
Consider B3, for which the midpoint of thermal melting (Tm) (Saccharomyces cerevisiae (strain ATCC 204508 / S288c), pH 7.5, Thermal, CD, Tris-HCl 100 mM, reversible: No) was 60.2 °C.

B4: DNA-binding protein 7d wild type, P39476 (protein)
chain: MATVKFKYKGEEKEVDISKIKKVWRVGKMISFTYDEGGGKTGRGAVSEKDAPKELLQMLEKQKK
For the protein B4, the melting temperature (Tm) (Saccharolobus solfataricus (strain ATCC 35092 / DSM 1617 / JCM 11322 / P2), pH 4.5, Thermal, NMR, Unknown) turned out to be 60.9 °C. The unfolding free energy (Saccharolobus solfataricus (strain ATCC 35092 / DSM 1617 / JCM 11322 / P2), pH 6.1, 25 °C, Fluorescence, MES 50 mM, NaCl 100 mM) was found to be 5.93 kcal/mol. Under setting [3], the Tm was 99 °C, the “heat capacity change of unfolding” value came to 0.75 kcal/mol/K and the “unfolding enthalpy (calorimetric)” value was determined as 65 kcal/mol.

B5: D-amino-acid oxidase wild type, P80324 (protein)
chain: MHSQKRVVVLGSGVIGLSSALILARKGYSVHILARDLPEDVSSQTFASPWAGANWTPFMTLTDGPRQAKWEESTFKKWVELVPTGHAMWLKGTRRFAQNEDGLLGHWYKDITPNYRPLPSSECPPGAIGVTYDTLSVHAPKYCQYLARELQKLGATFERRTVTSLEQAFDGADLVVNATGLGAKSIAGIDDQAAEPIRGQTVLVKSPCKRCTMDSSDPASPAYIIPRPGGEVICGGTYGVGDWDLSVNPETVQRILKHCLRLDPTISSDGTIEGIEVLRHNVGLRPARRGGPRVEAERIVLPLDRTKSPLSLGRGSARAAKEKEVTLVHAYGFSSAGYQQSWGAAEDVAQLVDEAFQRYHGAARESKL
On to B5, for which the Tm was 50.2 °C and 48 °C (Rhodotorula toruloides, pH 7.5, Thermal, CD, Potassium phosphate 50 mM, reversible: No); 56.9 °C and 55.9 °C (Rhodotorula toruloides, pH 7.5, Thermal, DSC, Potassium phosphate 50 mM, reversible: No); 39 °C and 39.7 °C (Rhodotorula toruloides, pH 7.5, Thermal, Fluorescence, Potassium phosphate 50 mM, NH4SCN 0.5 M, reversible: No).

B6: Cytochrome c mitochondrial import factor CYC2 wild type, P38909 (protein)
chain: MLWKNYVLSSSRITRRLHKSPRKSSFSKNFFITGCLLTVGAVSSYLTYRYTSERENKHELSPSYFVKYKISHKRDIDSSHFLLEVTPLFKQKVNIWSLMTAENLWSVEIKQPEVMVVRNYTPLPLKFNPASKEIEILKDGDNADGKLSFYIKKYENGEVARWLHHLPKGHIIEIRGPFIDYEFPHLPNELKRSRDCLYMDNRNERGNNVRENSQFIYQPYDIMMFTAGTGIVTALQLLLTESPFRGTIKLFHTDKNIKQLGPLYPILLRLQASNRVQLKIFETDRQTKQDVLKSIQKSITKPYPYKGLLPFSNVNNKNIMPVLALVCGPESYISSISGRKYDLNQGPVGGLLSKEGWNSDNVYKLS
As to B6, the unfolding free energy (Saccharomyces cerevisiae (strain ATCC 204508 / S288c), pH 6, 20 °C, DSC, Sodium phosphate 0.1 M, reversible: yes) was determined as 4.2 kcal/mol. Besides, under setting [4], the denaturant m value was determined as 3.2 kcal/mol/M, the “denaturant midpoint (higher = more stable)” value stood at 1.5 M and the unfolding free energy is 4.9 kcal/mol. In addition, the unfolding free energy (Saccharomyces cerevisiae (strain ATCC 204508 / S288c), pH 6, 20 °C, Fluorescence, Sodium phosphate 0.1 M) was 3.8 kcal/mol. Further, under setting [5], the Tm was 79.4 °C, the “unfolding enthalpy (calorimetric)” value stood at 113 kcal/mol and the “unfolding enthalpy (van 't Hoff)” value came to 140 kcal/mol. Moreover, under setting [6], the “denaturant midpoint (higher = more stable)” value came out at 1.49 M and the unfolding free energy came out at 3.8 kcal/mol.
